Changes are numbered by the printed parent chain.
B1: J-19.h1 (antibody, human IgG4 S228P, kappa, V domains shown)
VH: QITLKESGPTLVKPTQTLTLTCTFSGFSLNTYAMGVSWIRQPPGKALEWLASIWWNGNKYNNPSLKSRLTVTKDTSKNQVVLTMTNMDPVDTATYYCAHSRIIRFTDYVMDAWGQGTLVTVSS
VL: DIQMTQSPSSLSTSVGDRVTITCRASEDIYNDLAWYQQKPGKAPKLLIYNANSLHTGVASRFSGSGSGTDFTFTISSLQPEDVATYFCQQYYDYPLTFGQGTKLEIKR
notes: Humanized, human IgG4 backbone
B2: J-19.h3 (antibody, human IgG4 S228P, kappa, V domains shown)
VH: B1 VH with I2V, T10S, V71I, T83K, M84V, V90A, L118T
VL: DIVMTQSPSSLSASVGDTVTITCRASEDIYNDLAWYQQKPGKAPQLLLYNANSLHTGVPSRFSGSGSGTDYTLTISTLQPEDFATYYCQQYYDYPLTFGPGTKVHIKR
notes: as for B1
B3: J-19.h2 (antibody, human IgG4 S228P, kappa, V domains shown)
VH: B1 VH
VL: B2 VL
notes: as for B1
B4: J-19.h4 (antibody, human IgG4 S228P, kappa, V domains shown)
VH: B1 VH with I2V, T10A, Q16H, V71I, T72S, V90E, Y95F, Q115R, L118T
VL: B2 VL
notes: as for B1

These binders were tested against T1, human LILRB2 expressed on cells (human, UniProt Q8N423 22-597) (assay: cell-based or functional assay).
T1 sequence (Q8N423 other isoform, or with tags, fused parts or gaps limits assumed): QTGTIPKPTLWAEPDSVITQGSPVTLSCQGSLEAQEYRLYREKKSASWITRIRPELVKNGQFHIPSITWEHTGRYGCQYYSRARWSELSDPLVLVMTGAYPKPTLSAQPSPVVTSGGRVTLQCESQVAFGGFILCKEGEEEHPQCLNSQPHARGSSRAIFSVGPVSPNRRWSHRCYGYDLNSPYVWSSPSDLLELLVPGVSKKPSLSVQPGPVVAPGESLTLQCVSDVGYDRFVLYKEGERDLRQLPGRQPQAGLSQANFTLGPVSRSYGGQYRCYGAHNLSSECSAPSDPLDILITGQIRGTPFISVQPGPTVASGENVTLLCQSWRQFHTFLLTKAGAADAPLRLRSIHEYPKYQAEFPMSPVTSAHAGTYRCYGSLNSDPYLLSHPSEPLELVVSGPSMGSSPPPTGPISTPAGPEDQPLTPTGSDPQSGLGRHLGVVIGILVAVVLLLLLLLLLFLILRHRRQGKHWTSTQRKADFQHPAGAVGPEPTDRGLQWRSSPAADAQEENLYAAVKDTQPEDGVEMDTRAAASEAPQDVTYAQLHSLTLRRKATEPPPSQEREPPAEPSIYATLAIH

EC50, IL-6 production by LPS-stimulated HMDMs [nM]	EC50, TNFa production by LPS-stimulated HMDMs [nM]	IC50, CCL2 production by LPS-stimulated HMDMs [nM]	IC50, IL-10 production by LPS-stimulated HMDMs [nM]	Binder
0.085	0.076	0.005	0.45	B1
0.083	0.087	5.9	0.27	B2
0.186	0.12	0.011	0.702	B3
0.091	0.084	0.01	0.19	B4

What follows are binders tested against T2, human LILRA1 (human, UniProt O75019 17-489) (assay: flow cytometry, LILRA1 CHOs).
T2 construct: Over-expressed on CHO-s cells; also called hLILRA1
T2 sequence (O75019 17-489 limits assumed): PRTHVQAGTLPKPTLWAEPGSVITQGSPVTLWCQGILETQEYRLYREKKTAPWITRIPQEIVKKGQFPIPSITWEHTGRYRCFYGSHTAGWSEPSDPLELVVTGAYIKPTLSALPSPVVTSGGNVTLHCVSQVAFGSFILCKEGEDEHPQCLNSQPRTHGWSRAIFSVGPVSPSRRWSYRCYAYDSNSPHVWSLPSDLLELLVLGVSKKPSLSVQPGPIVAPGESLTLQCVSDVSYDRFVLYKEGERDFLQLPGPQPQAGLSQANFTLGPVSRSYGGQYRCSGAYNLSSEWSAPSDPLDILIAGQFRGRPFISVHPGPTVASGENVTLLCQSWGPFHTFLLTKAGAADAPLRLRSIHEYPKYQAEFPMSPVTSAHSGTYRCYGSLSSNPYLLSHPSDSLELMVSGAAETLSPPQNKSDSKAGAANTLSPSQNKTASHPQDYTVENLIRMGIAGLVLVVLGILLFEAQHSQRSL
Method: (§1) To test for specificity to hLILRB2 and not towards any of the ten LILR family members, a multiplexed cell-based barcoding approach was used by staining cells with Far Red and/or Violet Cell Trace dyes (Thermo Scientific) according to manufacturer's protocol or left unstained. In brief, cells were washed twice with 1×DPBS and then incubated with diluted dye in 1×DPBS for 20 minutes at 37° C., mixing gently every 5-10 minutes. Dye labeling was quenched by adding equal volume of 100% HI-FBS (Sigma) to the cells. Note that LILRB1, LILRB2, LILRB3, LILRB4, and LILRB5 cell lines are also GFP-positive, while LILRA1, LILRA2, LILRA3, LILRA4, LILRA5, and LILRA6 cell lines are GFP-negative. The cells were then washed twice in 1×DPBS and then all 11 cell lines were combined per well in a 96-well round bottom tissue-culture treated plate. At least 25×10³ cells of each cell-line were plated per well. Cells were then re-suspended in primary antibody (anti-LILRB2 mAbs or control) prepared in FACS buffer (1×DPBS containing 2% HI-FBS (Sigma)+0.05% Sodium Azide). After incubation at 4° C. for 30 minutes, cells were washed twice with 1×DPBS and re-suspended in anti-human IgG-PE (BioLegend) diluted 1:200 in FACS buffer. Following a 30 minute incubation at 4° C., protected from light, cells were washed in 1×DPBS and re-suspended in fix buffer (1.5% paraformaldehyde diluted in 1×DPBS). Samples were analyzed using the Celesta flow cytometer analyzer (BD Biosciences). Geometric mean fluorescence intensity (gMFI) of PE was determined for each antibody across each cell line. Background MFI was detected with isotype control and relative binding of antibodies tested was measured as a fold over isotype.

binding (fold over iso)	binding result	Binder
0.95	no binding	B1
1	no binding	B2
0.89	no binding	B3
0.99	no binding	B4

What follows are binders tested against T3, human LILRA2 (human, UniProt Q8N149 24-483) (assay: flow cytometry, LILRA2 CHOs).
T3 construct: Over-expressed on CHO-s cells; also called hLILRA2
T3 sequence (Q8N149 24-483 S135L limits assumed): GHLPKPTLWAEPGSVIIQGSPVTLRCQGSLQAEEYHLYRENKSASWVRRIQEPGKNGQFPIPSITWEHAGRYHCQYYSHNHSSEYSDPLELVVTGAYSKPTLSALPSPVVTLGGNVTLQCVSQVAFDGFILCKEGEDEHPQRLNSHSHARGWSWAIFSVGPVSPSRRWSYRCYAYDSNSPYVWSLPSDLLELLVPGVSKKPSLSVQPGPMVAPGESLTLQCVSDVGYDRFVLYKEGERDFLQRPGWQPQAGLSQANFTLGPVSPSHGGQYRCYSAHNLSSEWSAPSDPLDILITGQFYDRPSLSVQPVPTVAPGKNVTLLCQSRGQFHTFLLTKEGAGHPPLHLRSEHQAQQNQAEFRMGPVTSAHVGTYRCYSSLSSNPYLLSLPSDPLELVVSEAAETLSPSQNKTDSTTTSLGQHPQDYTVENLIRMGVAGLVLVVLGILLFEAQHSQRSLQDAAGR
Method: as §1

binding (fold over iso)	binding result	Binder
0.88	no binding	B1
0.83	no binding	B2
0.66	no binding	B3
0.96	no binding	B4

Each binder was assayed against T4, human LILRA3 (human, UniProt Q8N6C8 24-439) (assay: flow cytometry, LILRA3 CHOs).
T4 construct: Over-expressed on CHO-s cells; also called hLILRA3
T4 sequence (Q8N6C8 24-439 limits assumed): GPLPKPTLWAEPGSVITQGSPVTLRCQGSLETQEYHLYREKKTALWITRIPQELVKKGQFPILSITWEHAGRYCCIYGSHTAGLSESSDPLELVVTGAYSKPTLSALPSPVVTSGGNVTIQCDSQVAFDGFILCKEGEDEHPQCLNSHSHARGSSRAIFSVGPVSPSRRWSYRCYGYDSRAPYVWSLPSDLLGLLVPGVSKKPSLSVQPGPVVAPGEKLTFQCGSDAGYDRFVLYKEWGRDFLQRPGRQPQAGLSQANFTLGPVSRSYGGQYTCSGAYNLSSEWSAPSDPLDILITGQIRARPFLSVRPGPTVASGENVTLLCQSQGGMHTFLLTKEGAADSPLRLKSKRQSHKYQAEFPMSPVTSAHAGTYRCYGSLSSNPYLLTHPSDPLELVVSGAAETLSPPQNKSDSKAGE
Method: as §1

binding (fold over iso)	binding result	Binder
0.97	no binding	B1
0.92	no binding	B2
0.83	no binding	B3
0.99	no binding	B4

The binders below were run against T5, human LILRA4 (human, UniProt P59901 24-499) (assay: flow cytometry, LILRA4 CHOs).
T5 construct: Over-expressed on CHO-s cells; also called hLILRA4
T5 sequence (P59901 other isoform, or with tags, fused parts or gaps limits assumed): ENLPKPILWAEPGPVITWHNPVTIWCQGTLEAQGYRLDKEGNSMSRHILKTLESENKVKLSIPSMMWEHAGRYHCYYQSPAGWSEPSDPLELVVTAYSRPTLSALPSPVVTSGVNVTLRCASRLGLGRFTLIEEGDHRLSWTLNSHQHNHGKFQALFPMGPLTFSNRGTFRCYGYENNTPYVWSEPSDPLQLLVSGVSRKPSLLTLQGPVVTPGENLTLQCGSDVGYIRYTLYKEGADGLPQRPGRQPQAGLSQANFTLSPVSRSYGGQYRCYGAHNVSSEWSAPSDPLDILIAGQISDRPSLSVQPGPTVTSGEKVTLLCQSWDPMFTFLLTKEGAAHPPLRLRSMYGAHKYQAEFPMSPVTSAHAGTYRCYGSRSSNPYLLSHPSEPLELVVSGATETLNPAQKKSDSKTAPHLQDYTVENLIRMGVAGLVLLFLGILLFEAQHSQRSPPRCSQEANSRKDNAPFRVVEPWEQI
Method: as §1

binding (fold over iso)	binding result	Binder
0.95	no binding	B1
0.99	no binding	B2
0.84	no binding	B3
1.09	no binding	B4

Each binder was assayed against T6, human LILRA5 (human, UniProt A6NI73 42-299) (assay: flow cytometry, LILRA5 CHOs).
T6 construct: Over-expressed on CHO-s cells; also called hLILRA5
T6 sequence (A6NI73 42-299 limits assumed): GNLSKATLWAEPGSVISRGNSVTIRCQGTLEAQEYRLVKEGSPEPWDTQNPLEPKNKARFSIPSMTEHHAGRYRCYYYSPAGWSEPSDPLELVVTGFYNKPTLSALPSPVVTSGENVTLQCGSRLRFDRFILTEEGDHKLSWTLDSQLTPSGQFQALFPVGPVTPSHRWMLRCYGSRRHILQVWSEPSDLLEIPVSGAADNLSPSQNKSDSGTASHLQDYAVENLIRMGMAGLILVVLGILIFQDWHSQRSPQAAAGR
Method: as §1

binding (fold over iso)	binding result	Binder
1.34	no binding	B1
1.22	no binding	B2
0.86	no binding	B3

The binders below were run against T7, human LILRA6 (human, UniProt Q6PI73 24-481) (assay: flow cytometry, LILRA6 CHOs).
T7 construct: Over-expressed on CHO-s cells; also called hLILRA6
T7 sequence (Q6PI73 24-481 limits assumed): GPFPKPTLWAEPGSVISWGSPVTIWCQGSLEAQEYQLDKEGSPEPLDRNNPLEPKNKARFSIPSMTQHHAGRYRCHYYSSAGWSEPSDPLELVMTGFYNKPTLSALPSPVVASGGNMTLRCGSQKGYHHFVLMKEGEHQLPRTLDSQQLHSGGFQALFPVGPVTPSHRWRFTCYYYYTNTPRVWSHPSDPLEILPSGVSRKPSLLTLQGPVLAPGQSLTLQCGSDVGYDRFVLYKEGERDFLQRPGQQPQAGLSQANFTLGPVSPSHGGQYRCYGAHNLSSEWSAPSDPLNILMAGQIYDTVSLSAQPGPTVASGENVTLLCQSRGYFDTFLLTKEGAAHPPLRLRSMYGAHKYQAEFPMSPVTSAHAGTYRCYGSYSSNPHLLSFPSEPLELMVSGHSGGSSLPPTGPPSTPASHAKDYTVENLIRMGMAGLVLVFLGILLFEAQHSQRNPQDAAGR
Method: as §1

binding (fold over iso)	binding result	Binder
0.98	no binding	B1
1.03	no binding	B2
0.74	no binding	B3
1.27	no binding	B4

What follows are binders tested against T8, human LILRB1 (human, UniProt Q8NHL6 24-650) (assay: flow cytometry, LILRB1 CHOs).
T8 construct: Over-expressed on CHO-s cells; also called hLILRB1
T8 sequence (Q8NHL6 24-650 limits assumed): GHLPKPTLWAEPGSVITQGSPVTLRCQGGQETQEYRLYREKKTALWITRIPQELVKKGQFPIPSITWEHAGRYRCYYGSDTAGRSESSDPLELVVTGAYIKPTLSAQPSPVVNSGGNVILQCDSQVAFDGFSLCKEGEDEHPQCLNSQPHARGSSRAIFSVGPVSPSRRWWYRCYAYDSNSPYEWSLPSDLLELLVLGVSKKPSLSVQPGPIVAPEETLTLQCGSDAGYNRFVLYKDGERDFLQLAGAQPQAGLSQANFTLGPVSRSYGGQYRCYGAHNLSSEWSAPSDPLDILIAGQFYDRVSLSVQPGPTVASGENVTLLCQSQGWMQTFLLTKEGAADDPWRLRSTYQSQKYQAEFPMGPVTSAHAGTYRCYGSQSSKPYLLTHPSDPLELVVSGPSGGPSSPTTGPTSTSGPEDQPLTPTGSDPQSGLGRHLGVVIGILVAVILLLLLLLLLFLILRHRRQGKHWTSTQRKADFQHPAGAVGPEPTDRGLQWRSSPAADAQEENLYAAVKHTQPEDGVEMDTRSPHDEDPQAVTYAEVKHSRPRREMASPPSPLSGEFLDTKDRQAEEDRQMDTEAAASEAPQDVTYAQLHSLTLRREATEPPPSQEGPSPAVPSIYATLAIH
Method: as §1

binding (fold over iso)	binding result	Binder
0.79	no binding	B1
0.84	no binding	B2
0.73	no binding	B3
0.87	no binding	B4

These binders were tested against T1, human LILRB2 expressed on cells (assay: flow cytometry, LILRB2 CHOs).

binding (fold over iso)	Binder
73.2	B1
79.4	B2
74.5	B3
76.5	B4

Each binder was assayed against T9, human LILRB3 (human, UniProt O75022 24-631) (assay: flow cytometry, LILRB3 CHOs).
T9 construct: Over-expressed on CHO-s cells; also called hLILRB3
Method: as §1

binding (fold over iso)	binding result	Binder
1	no binding	B1
0.97	no binding	B2
0.81	no binding	B3
1.24	no binding	B4

These binders were tested against T10, human LILRB4 (human, UniProt Q8NHJ6 22-448) (assay: flow cytometry, LILRB4 CHOs).
T10 construct: Over-expressed on CHO-s cells; also called hLILRB4
Method: as §1

binding (fold over iso)	binding result	Binder
1.22	no binding	B1
1.16	no binding	B2
0.9	no binding	B3

Each binder was assayed against T11, human LILRB5 (human, UniProt O75023 24-590) (assay: flow cytometry, LILRB5 CHOs).
T11 construct: Over-expressed on CHO-s cells; also called hLILRB5
T11 sequence (O75023 24-590 P542R limits assumed): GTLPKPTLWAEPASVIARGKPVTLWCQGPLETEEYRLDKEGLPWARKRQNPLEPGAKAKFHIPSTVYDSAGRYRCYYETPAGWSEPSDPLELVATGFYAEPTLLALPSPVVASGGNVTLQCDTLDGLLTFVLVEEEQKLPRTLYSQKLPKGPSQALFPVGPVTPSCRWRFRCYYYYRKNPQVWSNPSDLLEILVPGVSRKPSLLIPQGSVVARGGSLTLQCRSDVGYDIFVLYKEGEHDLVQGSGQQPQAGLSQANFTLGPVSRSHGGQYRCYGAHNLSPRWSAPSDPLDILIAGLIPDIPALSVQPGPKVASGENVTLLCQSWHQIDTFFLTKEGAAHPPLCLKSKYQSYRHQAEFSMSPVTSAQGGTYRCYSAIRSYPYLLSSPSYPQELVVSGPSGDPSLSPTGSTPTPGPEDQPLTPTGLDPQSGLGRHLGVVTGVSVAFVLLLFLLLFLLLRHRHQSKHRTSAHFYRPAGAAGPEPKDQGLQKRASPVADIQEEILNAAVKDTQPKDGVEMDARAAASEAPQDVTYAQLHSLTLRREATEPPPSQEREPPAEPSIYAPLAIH
Method: as §1

binding (fold over iso)	binding result	Binder
1.01	no binding	B1
0.95	no binding	B2
0.76	no binding	B3
1.27	no binding	B4

These binders were tested against T1, human LILRB2 expressed on cells (assay: flow cytometry, binding to hLILRB2 CHOs).

EC50 [nM]	Binder
0.032	B1
0.0325	B2
0.447	B3
0.00175	B4

Each binder was assayed against T1, human LILRB2 expressed on cells (assay: HLA-G:LILRB2 blocking; HLA-G tetramer on primary human macrophages, flow cytometry).
Method: (§2) The potency of select humanized variants in blocking the interaction of HLA-G and HLA-A2 with primary human macrophage-expressed hLILRB2 were assessed. Primary human monocytes were differentiated into macrophages in the presence of M-CSF. After seven days of differentiation, 1×10⁵ HMDMs were plated in 96-well round-bottom tissue culture-treated plate and washed twice with 1×DPBS (Gibco) and then incubated with 50 μL primary antibody (anti-LILRB2 mAbs or control) prepared in FACS buffer (1×DPBS containing 2% HI-FBS (Sigma)+0.05% Sodium Azide). After incubation with mAbs for 30 minutes at 4° C., cells were washed twice in FACS buffer and then resuspended in 50 μL of FACS buffer containing 5 μg/mL APC-conjugated HLA-G or HLA-A2 tetramer (Fred Hutch). Cells were incubated protected from light for 30-60 minutes at 4° C. After incubation with tetramer, cells were washed in FACS buffer and re-suspended in fix buffer (1.5% paraformaldehyde diluted in 1×DPBS). Samples were analyzed using the Celesta flow cytometer analyzer (BD Biosciences).

EC50 [nM]	Binder
0.162	B1
0.113	B2
0.122	B3
0.131	B4

These binders were tested against T1, human LILRB2 expressed on cells (assay: HLA-A2:LILRB2 blocking; HLA-A2 tetramer on primary human macrophages, flow cytometry).
Method: as §2

EC50 [nM]	Binder
0.083	B1
0.103	B2
0.087	B3
0.106	B4

What follows are binders tested against human LILRB2-His (human, UniProt Q8N423 22-460) (assay: SPR, Sierra Sensors MASS-2; antibody captured on anti-human Fc, LILRB2-His 65 to 0.27 nM, 1:1 Langmuir fit).
Sequence of human LILRB2-His (Q8N423 other isoform, or with tags, fused parts or gaps): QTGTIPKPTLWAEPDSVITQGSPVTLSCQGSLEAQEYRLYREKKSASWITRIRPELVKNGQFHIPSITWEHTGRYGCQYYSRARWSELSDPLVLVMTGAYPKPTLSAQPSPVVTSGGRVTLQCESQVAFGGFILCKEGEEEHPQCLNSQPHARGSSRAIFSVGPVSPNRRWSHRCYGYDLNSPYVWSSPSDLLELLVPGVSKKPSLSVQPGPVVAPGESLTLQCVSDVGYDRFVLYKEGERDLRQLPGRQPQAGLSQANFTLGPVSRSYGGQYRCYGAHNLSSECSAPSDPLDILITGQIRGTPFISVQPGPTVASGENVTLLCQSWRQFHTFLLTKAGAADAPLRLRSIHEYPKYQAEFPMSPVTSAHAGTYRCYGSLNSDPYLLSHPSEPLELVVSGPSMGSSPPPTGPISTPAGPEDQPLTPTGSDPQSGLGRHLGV
Method: Using a Mass-2 (Sierra Sensors) high capacity amine chip preimmobilized with AffiniPure Goat Anti-Human IgG, Fcγ Fragment Specific antibody, humanized antibodies were captured on the anti-human surface and then binding to human LILRB2-His was measured by flowing six different concentrations from 65 to 0.27 nM of the analyte over the antibody surface. The anti-LILRB2 surface was removed (10 mM Glycine, pH 2.0) and recaptured between all concentrations or buffer only cycles. The data was analyzed using the Sierra Analyzer software (version 3.1.14). All curves were double subtracted and fit to a 1:1 Langmuir Fit.

Kd [nM]	koff [s⁻¹]	kon [M⁻¹ s⁻¹]	Binder
2.73	0.00107	391000	B1
1.96	0.00101	518000	B2
4.58	0.00238	521000	B3
2.33	0.0012	513000	B4
